The record followed here is patent US6342348 (GENETECH, dated 2002).

In this experiment the target is T1, recombinant soluble rat GDNFRα (rat, UniProt Q62997 25-427, limits assumed).
T1 construct: also called rGDNFRα; GFR-alpha-1
T1 sequence (looked up): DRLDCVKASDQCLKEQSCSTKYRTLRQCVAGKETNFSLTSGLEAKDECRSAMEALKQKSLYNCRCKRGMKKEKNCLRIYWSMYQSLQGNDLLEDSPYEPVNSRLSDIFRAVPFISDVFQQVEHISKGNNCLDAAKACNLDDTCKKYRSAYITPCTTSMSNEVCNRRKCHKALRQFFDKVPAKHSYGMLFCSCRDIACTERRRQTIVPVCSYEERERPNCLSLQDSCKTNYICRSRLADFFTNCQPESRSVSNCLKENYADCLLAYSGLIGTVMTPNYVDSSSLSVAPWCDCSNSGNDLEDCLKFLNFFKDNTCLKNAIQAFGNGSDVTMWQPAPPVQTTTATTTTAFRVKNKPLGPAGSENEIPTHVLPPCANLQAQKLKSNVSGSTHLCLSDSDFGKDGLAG
Description: equilibrium competition binding of ^125I-rGDNF to recombinant soluble rGDNFRα, Scatchard.

B1: rat GDNF (ligand, UniProt Q07731 78-211, looked up)
chain: SPDKQAAALPRRERNRQAAAASPENSRGKGRRGQRGKNRGCVLTAIHLNVTDLGLGYETKEELIFRYCSGSCEAAETMYDKILKNLSRSRRLTSDKVGQACCRPVAFDDDLSFLDDSLVYHILRKHSAKRCGCI
modifications: ^125I label (iodinated either on tyrosine by the Bolton Hunter method or on lysine using lactoperoxidase)
notes: also called rGDNF; RGDNF
For B1, the Kd was 3 pM.

What is called Kd is a measure of binding affinity in units of concentration.
